Experimental findings from PMC6745501, “Plant photoreceptors and their signaling components compete for COP1 binding via VP peptide motifs” (The EMBO Journal, 2019) are described below.

Data set [1] has as its target T1, Arabidopsis COP1^349–675 WD40 domain (Arabidopsis, UniProt P43254 349-675).
T1 construct: COP1 (CONSTITUTIVELY PHOTOMORPHOGENIC 1) E3 ubiquitin ligase, Arabidopsis, WD40 domain, residues 349-675; also called COP1 WD40 domain; COP1 WD40; not shown: His10, N-terminal, cleaved; Twin-Strep, N-terminal, cleaved
T1 sequence (looked up): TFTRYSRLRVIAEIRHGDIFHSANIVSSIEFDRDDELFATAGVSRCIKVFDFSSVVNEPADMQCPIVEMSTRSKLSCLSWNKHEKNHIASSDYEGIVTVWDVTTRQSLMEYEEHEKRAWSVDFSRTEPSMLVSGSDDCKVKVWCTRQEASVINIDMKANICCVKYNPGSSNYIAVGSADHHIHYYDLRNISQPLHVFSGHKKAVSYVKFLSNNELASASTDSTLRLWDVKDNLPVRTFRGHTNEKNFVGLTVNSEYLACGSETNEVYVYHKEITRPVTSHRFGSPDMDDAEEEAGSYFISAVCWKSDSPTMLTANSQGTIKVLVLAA
Nature of the data set: grating-coupled interferometry (GCI); COP1 WD40 amine-coupled (2,000 pg/mm^2), surface passivated with BSA; analyte full-length CRY2 activated by light (highest 14 μM) or CRY2^NC80 (highest 450 μM); 150 mM NaCl, 20 mM HEPES 7.4, 2 mM BME; 25°C; heterogenous ligand model. The note with it: both partners purified.

The target in data set [2] is T1, Arabidopsis COP1^349–675 WD40 domain. Nature of the data set: crystal structure; co-crystals, 5 mg/ml COP1 with 3- to 10-fold molar excess of peptide; 1.25 M sodium malonate pH 7.5; 20°C. The note with it: both partners purified.
Data set [3] deals with T2, COP1^349–675,Lys422Ala WD40 domain (Arabidopsis, UniProt P43254 349-675, Lys422Ala).
T2 construct: COP1, Arabidopsis, WD40 domain, residues 349-675, Lys422Ala; also called COP1^Lys422Ala; not shown: His10, N-terminal, cleaved; Twin-Strep, N-terminal, cleaved
T2 sequence (looked up): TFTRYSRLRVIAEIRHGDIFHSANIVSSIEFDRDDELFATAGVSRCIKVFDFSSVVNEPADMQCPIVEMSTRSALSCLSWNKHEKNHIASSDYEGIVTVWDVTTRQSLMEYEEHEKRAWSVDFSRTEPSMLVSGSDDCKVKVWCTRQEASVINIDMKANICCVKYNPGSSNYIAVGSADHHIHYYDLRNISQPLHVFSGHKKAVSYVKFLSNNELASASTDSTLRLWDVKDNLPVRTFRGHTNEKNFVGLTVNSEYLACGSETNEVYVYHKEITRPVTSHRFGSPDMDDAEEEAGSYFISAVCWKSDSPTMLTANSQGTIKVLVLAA
Kind of data set: ITC; VP peptide (titrant, 500-3,000 μM) injected into COP1 WD40 in the cell at about 10-fold lower concentration; 150 mM NaCl, 20 mM HEPES 7.4, 2 mM BME; 25°C; one-site binding model. The note with it: both partners purified. Background: ITC needs no label: the signal is the heat of the interaction.

In data set [4] the target is T1, Arabidopsis COP1^349–675 WD40 domain. The data set is described as above. The settings on record: both partners purified.
Data set [5] concerns the molecule itself. Nature of the data set: SEC; purified recombinant chimeric UVR8 proteins alone, in the absence of UV-B. (SEC sorts molecules by how far they enter the pores of the column.)
In data set [6] the target is T1, Arabidopsis COP1^349–675 WD40 domain. Kind of data set: grating-coupled interferometry (GCI); COP1 WD40 amine-coupled to the chip (2,000 pg/mm^2); analyte in 1:3 dilution series from 2 μM (UVR8 forms pre-monomerized by UV-B; HY5); 150 mM NaCl, 20 mM HEPES 7.4, 2 mM BME; 25°C; 1:1 binding model. The settings on record: both partners purified.

B1: CRY2^NC80 (CRY2^486–565) (domain or fragment, Arabidopsis, UniProt Q96524 486-565, looked up)
chain: SRTREAQIMIGAAPDEIVADSFEALGANTIKEPGLCPSVSSNDQQVPSAVRYNGSKRVKPEEEEERDMKKSRGFDERELF
notes: cryptochrome 2 (CRY2), Arabidopsis, fragment of the C-terminus containing the VP motif (NC80 domain), residues 486-565; also called NC80 domain; not shown: His10, N-terminal, cleaved; Twin-Strep, N-terminal, cleaved
For the molecule B1, the binding result in data set [1] is on record as “binds”.

B2: HYH^27–34 VP peptide (peptide, UniProt Q8W191 27-34, looked up)
peptide: ELLMVPDM
notes: HYH (HY5 homolog) transcription factor, residues 27-34; also called HYH peptide; source: synthetic peptide (Peptide Specialty Labs GmbH)
On to B2, for which the binding result in data set [2] is “binds”.

B3: CRY2^527–535 VP peptide (peptide, UniProt Q96524 527-535, looked up)
peptide: NDQQVPSAV
notes: also called CRY2 VP peptide; source: synthetic peptide (Peptide Specialty Labs GmbH)
For B3, the “fold reduction of binding against wild type COP1” value in data set [3] is approximately 30 fold. The “stoichiometry N” value in data set [4] was found to be 1.04.

B4: UVR8^HY5VP chimera (recombinant) (other)
chain: MAEDMAADEVTAPPRKVLIISAGASHSVALLSGDIVCSWGRGEDGQLGHGDAEDRPSPTQLSALDGHQIVSVTCGADHTVAYSQSGMEVYSWGWGDFGRLGHGNSSDLFTPLPIKALHGIRIKQIACGDSHCLAVTMEGEVQSWGRNQNGQLGLGDTEDSLVPQKIQAFEGIRIKMVAAGAEHTAAVTEDGDLYGWGWGRYGNLGLGDRTDRLVPERVTSTGGEKMSMVACGWRHTISVSYSGALYTYGWSKYGQLGHGDLEDHLIPHKLEALSNSFISQISGGWRHTMALTSDGKLYGWGWNKFGQVGVGNNLDQCSPVQVRFPDDQKVVQVSCGWRHTLAVTERNNVFAWGRGTNGQLGIGESVDRNFPKIIEALSVDGASGQHIESSNIDPSSGKSWVSPAEEIRRVPEFTGLTDGSSKGNGGDISVPQTDVKRVRI
For B4, in data set [5], the “stoichiometry N” value was 2.

B5: COL3^287–294 VP peptide (peptide, UniProt Q9SK53 287-294, looked up)
peptide: GFGVVPSF
notes: COL3/BBX4 transcription factor, residues 287-294 (holds Phe288); also called COL3 VP peptide; COL3 peptide; source: synthetic peptide (Peptide Specialty Labs GmbH)
As for B5, the “stoichiometry N” value in data set [3] is 0.9; in data set [4] it was 0.75.

B6: full‐length CRY2 (recombinant) (receptor, Arabidopsis, UniProt Q96524 1-612, looked up)
chain: MKMDKKTIVWFRRDLRIEDNPALAAAAHEGSVFPVFIWCPEEEGQFYPGRASRWWMKQSLAHLSQSLKALGSDLTLIKTHNTISAILDCIRVTGATKVVFNHLYDPVSLVRDHTVKEKLVERGISVQSYNGDLLYEPWEIYCEKGKPFTSFNSYWKKCLDMSIESVMLPPPWRLMPITAAAEAIWACSIEELGLENEAEKPSNALLTRAWSPGWSNADKLLNEFIEKQLIDYAKNSKKVVGNSTSLLSPYLHFGEISVRHVFQCARMKQIIWARDKNSEGEESADLFLRGIGLREYSRYICFNFPFTHEQSLLSHLRFFPWDADVDKFKAWRQGRTGYPLVDAGMRELWATGWMHNRIRVIVSSFAVKFLLLPWKWGMKYFWDTLLDADLECDILGWQYISGSIPDGHELDRLDNPALQGAKYDPEGEYIRQWLPELARLPTEWIHHPWDAPLTVLKASGVELGTNYAKPIVDIDTARELLAKAISRTREAQIMIGAAPDEIVADSFEALGANTIKEPGLCPSVSSNDQQVPSAVRYNGSKRVKPEEEEERDMKKSRGFDERELFSTAESSSSSSVFFVSQSCSLASEGKNLEGIQDSSDQITTSLGKNGCK
notes: cryptochrome 2 (CRY2), Arabidopsis blue-light photoreceptor, full length; not shown: His10, N-terminal, cleaved; Twin-Strep, N-terminal, cleaved
Take B6: the “fold increase in binding affinity over the isolated CRY2 VP peptide” value in data set [1] is approximately 200 fold.

B7: HFR1^57–64 VP peptide (peptide, UniProt Q9FE22 57-64, looked up)
peptide: YLQIVPEI
notes: LONG HYPOCOTYL IN FAR-RED 1 (HFR1) transcription factor, residues 57-64; also called HFR1 peptide; LONG HYPOCOTYL IN FAR‐RED 1; source: synthetic peptide (Peptide Specialty Labs GmbH)
In the case of B7, the binding result in data set [2] is recorded as “binds”.

B8: UVR8^TRIB1VP chimera (recombinant) (other)
chain: MAEDMAADEVTAPPRKVLIISAGASHSVALLSGDIVCSWGRGEDGQLGHGDAEDRPSPTQLSALDGHQIVSVTCGADHTVAYSQSGMEVYSWGWGDFGRLGHGNSSDLFTPLPIKALHGIRIKQIACGDSHCLAVTMEGEVQSWGRNQNGQLGLGDTEDSLVPQKIQAFEGIRIKMVAAGAEHTAAVTEDGDLYGWGWGRYGNLGLGDRTDRLVPERVTSTGGEKMSMVACGWRHTISVSYSGALYTYGWSKYGQLGHGDLEDHLIPHKLEALSNSFISQISGGWRHTMALTSDGKLYGWGWNKFGQVGVGNNLDQCSPVQVRFPDDQKVVQVSCGWRHTLAVTERNNVFAWGRGTNGQLGIGESVDRNFPKIIEALSVDGASGQHIESSNIDPSSGKSWVSPAESDQIVPEY
On to B8, for which the “stoichiometry N” value in data set [5] was determined as 2.

B9: CO^366–373 VP peptide (peptide, UniProt Q39057 366-373, looked up)
peptide: GYGIVPSF
notes: CONSTANS (CO/BBX1) transcription factor, residues 366-373; also called CO VP peptide; CONSTANS; source: synthetic peptide (Peptide Specialty Labs GmbH)
For B9, the “fold stronger binding than to wild type COP1” value in data set [3] was approximately 4 fold. Further, the “stoichiometry N” value came out at 0.89 in data set [3] and 1.03 in data set [4].

B10: CRY1^544–552 VP peptide (peptide, UniProt Q43125 544-552, looked up)
peptide: EDQMVPSIT
notes: cryptochrome 1 (CRY1), Arabidopsis blue-light photoreceptor, residues 544-552 (holds Asp545); also called CRY1 VP peptide; CRY1 peptide; source: synthetic peptide (Peptide Specialty Labs GmbH)
Turning to B10, the “stoichiometry N” value in data set [3] worked out at 0.98; in data set [4] it was 0.99.

B11: STO^240–247 VP peptide (peptide, UniProt Q96288 240-247, looked up)
peptide: EHFIVPDL
notes: SALT TOLERANCE (STO/BBX24) transcription factor, residues 240-247; also called STO peptide; SALT TOLERANCE (STO/BBX24); source: synthetic peptide (Peptide Specialty Labs GmbH)
For the molecule B11, the binding result in data set [2] is “binds”.

B12: full‐length HY5 protein (recombinant) (natural protein, Arabidopsis, UniProt O24646 1-168, looked up)
chain: MQEQATSSLAASSLPSSSERSSSSAPHLEIKEGIESDEEIRRVPEFGGEAVGKETSGRESGSATGQERTQATVGESQRKRGRTPAEKENKRLKRLLRNRVSAQQARERKKAYLSELENRVKDLENKNSELEERLSTLQNENQMLRHILKNTTGNKRGGGGGSNADASL
notes: ELONGATED HYPOCOTYL 5 (HY5) bZIP transcription factor, full length; not shown: His10, N-terminal, cleaved; Twin-Strep, N-terminal, cleaved
Molecule B12 had a Kd in data set [6] of approximately 1000 nM.

B13: UVR8^406–413 VP peptide (peptide, UniProt Q9FN03 406-413, looked up)
peptide: RYAVVPDE
notes: also called UVR8 VP peptide; UVR8 peptide; source: synthetic peptide (Peptide Specialty Labs GmbH)
For the molecule B13, in data set [3], the “fold increase in binding affinity against wild type COP1” value is approximately 10 fold and the “stoichiometry N” value was 0.87. Besides, the binding result in data set [4] is recorded as “binds”.

What is called stoichiometry N is a count of units in the complex or per binding partner. For orientation: Kd means the concentration at which binding is half-saturated. Lower therefore signals higher affinity.
